Test results reported in patent US7288251 (ABGENIX, dated 2007).
Each block holds one binder with its values, some of them ahead of it.

Experiments:
[1] = molecular target: T1, TNFR-2/Ig; experiment: ELISA, TNFR-2/Ig coated, antibody 1 µg/ml
T1 construct: also called Tumor Necrosis Factor Receptor-2
Protocol: (§1) We then washed the plate with PBST (PBS+0.1% Tween-20) three times and blocked the plate with PBST+0.5% BSA at 150 µl/well. We incubated the plate at room temperature for 1 hour and then washed with PBST three times. […] We incubated the plate at room temperature for 1 hour then washed with PBST three times. […] We incubated the plate at room temperature for 1 hour and then washed with PBST three times. […] We then read the plate using a SpectraMax™ plate reader.

[2] = molecular target: T2, Mouse CD40(D1-D3)-6Xhis (mouse, UniProt P27512 20-147, limits assumed); experiment: ELISA, 293F supernatant
T2 construct: domain: D1-D3; also called Mouse CD40(D1-D3)-6xHis fusion protein
T2 sequence (P27512 other isoform, or with tags, fused parts or gaps limits assumed): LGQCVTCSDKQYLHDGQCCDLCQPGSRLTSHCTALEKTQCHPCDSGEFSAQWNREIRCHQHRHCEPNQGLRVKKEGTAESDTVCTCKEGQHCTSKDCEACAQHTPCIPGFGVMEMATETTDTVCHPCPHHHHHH
Description: Binding of anti-CD40 human antibodies were detected with HRP conjugated goat anti-human IgG (FC specific Caltag H10507), diluted 1:2,000.

[3] = molecular target: T3, human CD40 on cells (human, UniProt P25942 21-277); experiment: cell-based or functional assay
T3 sequence (P25942 21-277): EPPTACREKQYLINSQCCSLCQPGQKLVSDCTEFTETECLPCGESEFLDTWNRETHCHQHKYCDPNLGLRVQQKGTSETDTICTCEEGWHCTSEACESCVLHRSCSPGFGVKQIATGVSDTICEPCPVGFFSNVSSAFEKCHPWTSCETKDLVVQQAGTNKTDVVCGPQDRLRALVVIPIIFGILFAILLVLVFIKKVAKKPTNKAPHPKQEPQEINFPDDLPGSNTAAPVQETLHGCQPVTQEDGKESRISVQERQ

[4] = molecular target: T3, human CD40 on cells; experiment: cell-based or functional assay; remark: listed apart in the source
[5] = molecular target: T3, human CD40 on cells; experiment: cell-based or functional assay; remark: listed apart in the source
[6] = molecular target: T4, human/mouse chimeric CD40 HuD2 (mouse; human, UniProt P27512 20-64; P25942 65-94; P27512 95-147, limits assumed); experiment: ELISA on chimeric CD40
T4 construct: domain: D1;domain: D2;domain: D3
T4 sequence (P27512 other isoform, or with tags, fused parts or gaps mutant limits assumed): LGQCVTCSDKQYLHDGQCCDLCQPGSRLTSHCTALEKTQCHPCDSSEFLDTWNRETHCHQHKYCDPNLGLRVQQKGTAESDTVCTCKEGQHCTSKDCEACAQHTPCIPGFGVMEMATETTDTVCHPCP

[7] = molecular target: T5, human/mouse chimeric CD40 HuD3 (mouse; human, UniProt P27512 20-94; P25942 95-147, limits assumed); experiment: ELISA on chimeric CD40
T5 construct: domain: D1-D2;domain: D3
T5 sequence (P27512 other isoform, or with tags, fused parts or gaps mutant limits assumed): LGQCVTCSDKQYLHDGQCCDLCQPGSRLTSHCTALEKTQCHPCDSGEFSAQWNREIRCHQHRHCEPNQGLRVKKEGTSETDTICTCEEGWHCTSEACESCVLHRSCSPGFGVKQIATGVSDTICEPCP

[8] = molecular target: T6, human/mouse chimeric CD40 HuD2, D3 (mouse; human, UniProt P27512 20-64; P25942 65-147, limits assumed); experiment: ELISA on chimeric CD40
T6 construct: domain: D1;domain: D2-D3
T6 sequence (P27512 other isoform, or with tags, fused parts or gaps mutant limits assumed): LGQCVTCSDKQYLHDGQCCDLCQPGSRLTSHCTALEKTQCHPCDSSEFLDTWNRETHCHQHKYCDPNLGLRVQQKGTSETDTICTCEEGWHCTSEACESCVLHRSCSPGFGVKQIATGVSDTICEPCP

[9] = molecular target: T7, human/mouse chimeric CD40 HuD1 (human; mouse, UniProt P25942 21-64; P27512 65-147, limits assumed); experiment: ELISA on chimeric CD40
T7 construct: domain: D1;domain: D2-D3
T7 sequence (P25942 other isoform, or with tags, fused parts or gaps mutant limits assumed): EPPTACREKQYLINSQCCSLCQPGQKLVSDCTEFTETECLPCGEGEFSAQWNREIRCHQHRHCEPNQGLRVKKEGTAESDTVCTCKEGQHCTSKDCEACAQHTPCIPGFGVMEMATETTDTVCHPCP

[10] = molecular target: T8, human/mouse chimeric CD40 HuD1, D3 (human; mouse, UniProt P25942 21-64; P27512 65-94; P25942 95-147, limits assumed); experiment: ELISA on chimeric CD40
T8 construct: domain: D1;domain: D2;domain: D3
T8 sequence (P25942 other isoform, or with tags, fused parts or gaps mutant limits assumed): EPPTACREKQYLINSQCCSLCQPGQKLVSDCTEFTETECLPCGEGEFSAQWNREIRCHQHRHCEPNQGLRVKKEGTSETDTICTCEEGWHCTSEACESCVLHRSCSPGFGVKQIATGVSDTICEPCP

[11] = molecular target: T3, human CD40 on cells; experiment: cell-based or functional assay; remark: listed apart in the source
[12] = molecular target: T9, TNFR-1/Ig; experiment: ELISA, TNFR-1/Ig coated, antibody 1 µg/ml
T9 construct: also called Tumor Necrosis Factor Receptor-1
T9 sequence (P19438 whole entry): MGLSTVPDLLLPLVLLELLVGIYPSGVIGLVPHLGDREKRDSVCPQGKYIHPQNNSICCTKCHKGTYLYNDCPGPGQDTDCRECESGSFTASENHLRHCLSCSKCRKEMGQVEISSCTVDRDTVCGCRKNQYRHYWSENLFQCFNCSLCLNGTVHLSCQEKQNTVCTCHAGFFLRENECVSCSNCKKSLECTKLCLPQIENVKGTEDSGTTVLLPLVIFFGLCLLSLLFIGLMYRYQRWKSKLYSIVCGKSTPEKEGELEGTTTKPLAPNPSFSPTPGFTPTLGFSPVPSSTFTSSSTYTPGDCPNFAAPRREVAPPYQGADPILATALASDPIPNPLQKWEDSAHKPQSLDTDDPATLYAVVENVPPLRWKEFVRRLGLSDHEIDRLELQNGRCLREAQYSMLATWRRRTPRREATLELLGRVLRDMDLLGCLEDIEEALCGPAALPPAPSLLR
Protocol: as §1

[13] = molecular target: T10, 4-1BB/Ig; experiment: ELISA, 4-1BB/Ig coated, antibody 1 µg/ml
T10 construct: also called CD137
Protocol: as §1

[14] = molecular target: RANK/Ig; experiment: ELISA, RANK/Ig coated, antibody 1 µg/ml
RANK/Ig, sequence (Q9Y6Q6 whole entry): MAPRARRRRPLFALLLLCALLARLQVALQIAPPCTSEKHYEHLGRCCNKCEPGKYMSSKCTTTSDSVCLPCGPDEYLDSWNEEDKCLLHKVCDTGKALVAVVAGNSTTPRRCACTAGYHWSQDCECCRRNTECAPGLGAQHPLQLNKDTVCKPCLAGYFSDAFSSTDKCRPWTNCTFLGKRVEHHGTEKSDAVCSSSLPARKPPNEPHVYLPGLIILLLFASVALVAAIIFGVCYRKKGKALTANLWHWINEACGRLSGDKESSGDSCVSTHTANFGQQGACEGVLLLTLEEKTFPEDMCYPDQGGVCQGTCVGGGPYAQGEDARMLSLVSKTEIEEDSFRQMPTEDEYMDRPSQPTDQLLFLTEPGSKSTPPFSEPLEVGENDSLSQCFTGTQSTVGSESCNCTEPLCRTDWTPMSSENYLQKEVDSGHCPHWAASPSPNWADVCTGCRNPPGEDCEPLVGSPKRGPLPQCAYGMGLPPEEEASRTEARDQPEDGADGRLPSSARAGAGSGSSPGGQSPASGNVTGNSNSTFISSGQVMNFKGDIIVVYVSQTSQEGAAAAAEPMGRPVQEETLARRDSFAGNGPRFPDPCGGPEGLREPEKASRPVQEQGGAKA
Protocol: as §1

[15] = molecular target: T11, mouse CD40 on blood cells (mouse, UniProt P27512 20-289); experiment: FACS, whole blood
T11 construct: whole, on cells; also called mouse blood
T11 sequence (P27512 20-289): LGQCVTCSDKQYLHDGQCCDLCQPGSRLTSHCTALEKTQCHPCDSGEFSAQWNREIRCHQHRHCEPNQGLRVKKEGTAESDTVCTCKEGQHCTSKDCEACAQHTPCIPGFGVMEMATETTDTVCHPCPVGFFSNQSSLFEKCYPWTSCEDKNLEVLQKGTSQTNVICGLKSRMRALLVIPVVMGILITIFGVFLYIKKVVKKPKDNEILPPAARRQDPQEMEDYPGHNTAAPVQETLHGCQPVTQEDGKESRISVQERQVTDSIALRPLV

[16] = molecular target: T12, rat CD40 on blood cells (rat, UniProt A6JXD6 20-289); experiment: FACS, whole blood
T12 construct: also called rat blood
T12 sequence: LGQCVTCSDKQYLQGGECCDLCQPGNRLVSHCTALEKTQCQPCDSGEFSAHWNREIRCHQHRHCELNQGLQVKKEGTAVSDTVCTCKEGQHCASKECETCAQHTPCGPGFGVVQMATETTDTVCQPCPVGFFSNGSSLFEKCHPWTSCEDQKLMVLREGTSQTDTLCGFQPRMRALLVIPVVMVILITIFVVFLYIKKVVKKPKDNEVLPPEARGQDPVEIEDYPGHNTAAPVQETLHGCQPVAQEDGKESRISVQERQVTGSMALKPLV

[17] = molecular target: T13, dog CD40 on blood cells (dog, UniProt Q7YRL5 21-274); experiment: FACS, whole blood
T13 construct: whole, on cells; also called dog blood
T13 sequence (looked up): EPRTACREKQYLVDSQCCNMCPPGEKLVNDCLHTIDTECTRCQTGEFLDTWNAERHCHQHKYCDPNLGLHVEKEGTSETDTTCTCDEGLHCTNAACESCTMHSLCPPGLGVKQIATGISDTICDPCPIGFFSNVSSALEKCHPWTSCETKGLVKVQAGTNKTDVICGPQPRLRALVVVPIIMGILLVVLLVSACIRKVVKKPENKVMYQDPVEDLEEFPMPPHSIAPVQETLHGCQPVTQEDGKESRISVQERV

[18] = molecular target: T14, human CD40-IgG1 Fc fusion protein (human, UniProt P25942 21-193); experiment: SPR BIAcore 3000, CD40-Ig immobilised, antibody injected
T14 construct: extracellular domain; also called CD40-Ig fusion protein; CD40-IgG fusion protein; not shown: human IgG1 Fc
T14 sequence (P25942 21-193): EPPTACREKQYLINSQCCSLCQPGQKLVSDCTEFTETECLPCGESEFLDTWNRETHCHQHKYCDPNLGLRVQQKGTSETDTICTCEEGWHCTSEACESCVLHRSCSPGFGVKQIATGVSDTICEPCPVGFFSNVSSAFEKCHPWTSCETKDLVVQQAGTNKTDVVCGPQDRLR

[19] = molecular target: T3, human CD40 on cells; experiment: FACS on CD19/CD20+ B cells in whole blood
Protocol: We incubated aliquots of human and monkey whole blood for 1 hour on ice with increasing concentrations of anti-CD40 antibodies of the invention exemplified herein or with an anti-keyhole limpet hemocyanin (KLH) antibody as a negative control. We then incubated the samples for 30 minutes on ice with anti-human IgG2-conjugated RPE (phycoerythrin). We measured binding by flow cytometry of CD19/CD20 positive B cells and analyzed the histograms of fluorescence intensity (F12-H) versus cell number (Counts) using CellQuest software. We estimated binding (K_D) for each antibody from graphs of mean fluorescence intensity versus antibody concentration. We controlled for depletion of the antibody by measuring binding over a range of cell concentrations.

[20] = molecular target: T14, human CD40-IgG1 Fc fusion protein; experiment: ELISA, CD40/Ig coated, antibody 1 µg/ml

- CD40 specific signal over the signal for this molecule [1]: ≥ 100 fold
- binding result [2]: no binding
- Dendritic cell B7-2 upregulation, EC50 [3]: 0.0714 µg/mL
- Dendritic cell CD83 upregulation, EC50 [3]: 0.233 µg/mL
- Dendritic cell ICAM upregulation, EC50 [3]: 0.241 µg/mL
- Dendritic cell MHC II upregulation, EC50 [3]: 0.252 µg/mL
- B cell B7-2 upregulation, EC50 [4]: 0.016 µg/mL
- B cell CD23 upregulation, EC50 [4]: 0.019 µg/mL
- B cell CD71 upregulation, EC50 [4]: 0.00073 µg/mL
- B cell ICAM upregulation, EC50 [4]: 0.0153 µg/mL
- B cell MHC II upregulation, EC50 [4]: 0.00385 µg/mL
- Allo DC/T IFNγ secretion, EC50 [5]: 0.3 µg/mL
- binding result [6]: no binding
- binding result [7]: no binding
- binding result [8]: no binding
- binding result [9]: no binding
- binding result [10]: no binding
- DC IL-12p70 secretion with LPS, EC50 [11]: 0.3 µg/mL
- CD40 specific signal over the signal for this molecule [12]: ≥ 100 fold
- CD40 specific signal over the signal for this molecule [13]: ≥ 100 fold
- CD40 specific signal over the signal for this molecule [14]: ≥ 100 fold
- binding result [15]: no binding
- binding result [16]: no binding
- binding result [17]: no binding
- Kd [18]: 0.348 nM
B1: monoclonal antibody 21.4.1 (antibody, human IgG2, kappa, V domains shown)
VH: not shown
VL: DIQMTQSPSSVSASVGDRVTITCRASQGIYSWLAWYQQKPGKAPNLLIYTASTLQSGVPSRFSGSGSGTDFTLTISSLQPEDFATYYCQQANIFPLTFGGGTKVEIKR
notes: Human IgG2 kappa from hybridoma; also called mAb 21.4.1; hybridoma 21.4.1 (LN 15853), ATCC PTA-3605

- CD40 specific signal over the signal for this molecule [1]: ≥ 100 fold
- binding result [19]: binds
- binding result [20]: binds
- CD40 specific signal over the signal for this molecule [12]: ≥ 100 fold
- CD40 specific signal over the signal for this molecule [13]: ≥ 100 fold
- CD40 specific signal over the signal for this molecule [14]: ≥ 100 fold
- binding result [15]: no binding
- binding result [16]: no binding
- binding result [17]: no binding
B2: monoclonal antibody 7.1.2 (antibody, human IgG2, kappa, V domains shown)
VH: QVQLVESGGGVVQPGRSLRLSCAASGFTFSSYGMHWVRQAPGKGLEWVAVISNDGDNKYHADSVWGRFTISRDNSRSTLYLQMNSLRAEDTAVYYCARRGMGSSGSRGDYYYYYGLDVWGQGTTVTVSS
VL: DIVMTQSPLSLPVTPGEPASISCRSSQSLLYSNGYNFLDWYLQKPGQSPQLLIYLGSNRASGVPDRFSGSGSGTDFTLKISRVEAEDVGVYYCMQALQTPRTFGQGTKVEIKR
notes: Human IgG2 kappa from hybridoma; also called hybridoma 7.1.2 (LN 15849), ATCC PTA-3601
